Data published in patent publication US20220175781A1, “CD40L COMPOSITIONS AND METHODS FOR TUNABLE REGULATION” (Obsidian Therapeutics, Inc., priority 2019, published 2022).

Assays:
HEK293T cells = assay: Linker length, ER regulated CD40L surface expression, transfected HEK293T cells; assay type: cell-based, human; settings: 1 μM Bazedoxifene 24 hours
Protocol: To explore the effect of linker length in the DD mediated regulation of CD40L, constructs with varying linker lengths were generated. OT-001966, OT-001965, OT-001967, OT-001666 constructs were generated and are presented here in decreasing linker length order. HEK293T cells were transiently transfected with these constructs and treated with 1 μM Bazedoxifene for 24 hours. Median fluorescence intensity, an indicator of surface expression of CD40L, was analyzed by flow cytometry.

T cells (CD4+ and CD8+) = assay: Regulation of CD40L in T cells by different drug responsive domains; assay type: cell-based
[1] = test system: T cells (CD4 and CD8 positive); assay: Bazedoxifene dose response, CD40L MFI in CD4 and CD8 positive T cells (day 4, freeze/thaw, restimulation); assay type: cell-based
Protocol: Dose response with Bazedoxifene in T cells were conducted for OT-001966, OT-001967, OT-001666. Expression of CD40L was measured at (a) day 4 after transduction, (b) after freezing and thawing the cells or (c) after freezing and thawing the cells followed by restimulation with CD3/CD28 beads. The CD40L MFI (median fluorescence intensity) within CD4 and CD8 positive subpopulations is shown in Table 34 and Table 35 respectively.

Jurkat cells = assay: Linker length, ER regulated CD40L, % CD40L positive Jurkat cells; assay type: cell-based
Protocol: Jurkat cells were lentivirally transduced and 24 hours after transduction were treated with DMSO or 1 μM Bazedoxifene for another 24 hours and analyzed by flow cytometry for surface expression of CD40L. […] In Table 33, SR indicates stabilization ratio.

B1: OT-001966: ER regulated CD40L construct, longest linker (protein)
chain: MSLALSLTADQMVSALLDAEPPILYSEYDPTRPFSEASMMGLLTNLADRELVHMINWAKRVPGFVDLTLHDQVHLLECAWMEILMIGLVWRSMEHPGKLLFAPNLLLDRDQGKCVEGGVEIFDMLLATSSRFRMMNLQGEEFVCLKSIILLNSGVYTFLSSTLKSLEEKDHIHRVLDKITDTLIHLMAKAGLTLQQQHQRLAQLLLILSHIRHMSNKRMEHLYSMKCKNVVPLSDLLLEMLDAHRLGGSGGGSGGGSGMIETYNQTSPRSAATGLPISMKIFMYLLTVFLITQMIGSALFAVYLHRRLDKIEDERNLHEDFVFMKTIQRCNTGERSLSLLNCEEIKSQFEGFVKDIMLNKEETKKENSFEMQKGDQNPQIAAHVISEASSKTTSVLQWAEKGYYTMSNNLVTLENGKQLTVKRQGLYYIYAQVTFCSNREASSQAPFIASLCLKSPGRFERILLRAANTHSSAKPCGQQSIHLGGVFELQPGASVFVNVTDPSQVSHGTGFTSFGLLKL
percentage of cells with high CD40L surface expression, ranking of constructs (HEK293T cells): highest percentage of cells with high CD40L surface expression | CD40L positive (T cells (CD4+ and CD8+); All Cells, 1 uM Baz): 58.1% | MFI (T cells (CD4+ and CD8+); All Cells, 1 uM Baz): 490 | CD40L positive (T cells (CD4+ and CD8+); All Cells, DMSO): 14% | MFI (T cells (CD4+ and CD8+); All Cells, DMSO): 174 | CD40L positive (T cells (CD4+ and CD8+); CD4+, 1 uM Baz): 62.8% | MFI (T cells (CD4+ and CD8+); CD4+, 1 uM Baz): 543 | CD40L positive (T cells (CD4+ and CD8+); CD4+, DMSO): 17% | MFI (T cells (CD4+ and CD8+); CD4+, DMSO): 197 | CD40L positive (T cells (CD4+ and CD8+); CD8+, 1 uM Baz): 42.3% | MFI (T cells (CD4+ and CD8+); CD8+, 1 uM Baz): 339 | CD40L positive (T cells (CD4+ and CD8+); CD8+, DMSO): 2.2% | MFI (T cells (CD4+ and CD8+); CD8+, DMSO): 95.6 | CD40L expression (MFI) ([1]; CD4+ cells, Day 4, Bazedoxifene 0.01 nM): 415 | CD40L expression (MFI) ([1]; CD4+ cells, Day 4, Bazedoxifene 0.1 nM): 499 | CD40L expression (MFI) ([1]; CD4+ cells, Day 4, Bazedoxifene 1 nM): 545 | CD40L expression (MFI) ([1]; CD4+ cells, Day 4, Bazedoxifene 10 nM): 616 | CD40L expression (MFI) ([1]; CD4+ cells, Day 4, Bazedoxifene 100 nM): 1028 | CD40L expression (MFI) ([1]; CD4+ cells, Day 4, Bazedoxifene 1000 nM): 1551 | CD40L expression (MFI) ([1]; CD4+ cells, Day 4, Bazedoxifene 10000 nM): 1095 | CD40L expression (MFI) ([1]; CD4+ cells, Post Thaw, Bazedoxifene 0.01 nM): 183 | CD40L expression (MFI) ([1]; CD4+ cells, Post Thaw, Bazedoxifene 0.1 nM): 185 | CD40L expression (MFI) ([1]; CD4+ cells, Post Thaw, Bazedoxifene 1 nM): 193 | CD40L expression (MFI) ([1]; CD4+ cells, Post Thaw, Bazedoxifene 10 nM): 213 | CD40L expression (MFI) ([1]; CD4+ cells, Post Thaw, Bazedoxifene 100 nM): 258 | CD40L expression (MFI) ([1]; CD4+ cells, Post Thaw, Bazedoxifene 1000 nM): 292 | CD40L expression (MFI) ([1]; CD4+ cells, Post Thaw, Bazedoxifene 10000 nM): 577 | CD40L expression (MFI) ([1]; CD4+ cells, Restim, Bazedoxifene 0.01 nM): 340 | CD40L expression (MFI) ([1]; CD4+ cells, Restim, Bazedoxifene 0.1 nM): 340 | CD40L expression (MFI) ([1]; CD4+ cells, Restim, Bazedoxifene 1 nM): 364 | CD40L expression (MFI) ([1]; CD4+ cells, Restim, Bazedoxifene 10 nM): 472 | CD40L expression (MFI) ([1]; CD4+ cells, Restim, Bazedoxifene 100 nM): 561 | CD40L expression (MFI) ([1]; CD4+ cells, Restim, Bazedoxifene 1000 nM): 741 | CD40L expression (MFI) ([1]; CD4+ cells, Restim, Bazedoxifene 10000 nM): 447 | CD40L expression (MFI) ([1]; CD8+ cells, Day 4, Bazedoxifene 0.01 nM): 168 | CD40L expression (MFI) ([1]; CD8+ cells, Day 4, Bazedoxifene 0.1 nM): 176 | CD40L expression (MFI) ([1]; CD8+ cells, Day 4, Bazedoxifene 1 nM): 190 | CD40L expression (MFI) ([1]; CD8+ cells, Day 4, Bazedoxifene 10 nM): 212 | CD40L expression (MFI) ([1]; CD8+ cells, Day 4, Bazedoxifene 100 nM): 442 | CD40L expression (MFI) ([1]; CD8+ cells, Day 4, Bazedoxifene 1000 nM): 669 | CD40L expression (MFI) ([1]; CD8+ cells, Day 4, Bazedoxifene 10000 nM): 438 | CD40L expression (MFI) ([1]; CD8+ cells, Post Thaw, Bazedoxifene 0.01 nM): 113 | CD40L expression (MFI) ([1]; CD8+ cells, Post Thaw, Bazedoxifene 0.1 nM): 117 | CD40L expression (MFI) ([1]; CD8+ cells, Post Thaw, Bazedoxifene 1 nM): 121 | CD40L expression (MFI) ([1]; CD8+ cells, Post Thaw, Bazedoxifene 10 nM): 148 | CD40L expression (MFI) ([1]; CD8+ cells, Post Thaw, Bazedoxifene 100 nM): 204 | CD40L expression (MFI) ([1]; CD8+ cells, Post Thaw, Bazedoxifene 1000 nM): 230 | CD40L expression (MFI) ([1]; CD8+ cells, Post Thaw, Bazedoxifene 10000 nM): 375 | CD40L expression (MFI) ([1]; CD8+ cells, Restim, Bazedoxifene 0.01 nM): 340 | CD40L expression (MFI) ([1]; CD8+ cells, Restim, Bazedoxifene 0.1 nM): 340 | CD40L expression (MFI) ([1]; CD8+ cells, Restim, Bazedoxifene 1 nM): 364 | CD40L expression (MFI) ([1]; CD8+ cells, Restim, Bazedoxifene 10 nM): 472 | CD40L expression (MFI) ([1]; CD8+ cells, Restim, Bazedoxifene 100 nM): 561 | CD40L expression (MFI) ([1]; CD8+ cells, Restim, Bazedoxifene 1000 nM): 741 | CD40L expression (MFI) ([1]; CD8+ cells, Restim, Bazedoxifene 10000 nM): 447 | CD40L expression, ranking of constructs ([1]; CD8 positive cells, freeze/thaw followed by restimulation with CD3/CD28 beads): highest ER regulated CD40L expression | Percent of Jurkat cells expressing CD40L (Jurkat cells; 1 μM Bazedoxifene): 46% | SR (Jurkat cells; 1 μM Bazedoxifene versus DMSO, % CD40L positive Jurkat cells): 15.3 | Percent of Jurkat cells expressing CD40L (Jurkat cells; DMSO): 3% | percentage of cells with high CD40L surface expression, ranking of constructs (Jurkat cells; Jurkat cells, 1 μM Bazedoxifene 24 hours): highest percentage of cells with high CD40L surface expression
